Literature values in paper PMC8688582.
pKd: −log10 of the molar value.

Molecular target: CD25 (Homo sapiens) (UniProt P01589)
Experiment: ITC

Sequence of UniProt P01589 (P01589 22-240): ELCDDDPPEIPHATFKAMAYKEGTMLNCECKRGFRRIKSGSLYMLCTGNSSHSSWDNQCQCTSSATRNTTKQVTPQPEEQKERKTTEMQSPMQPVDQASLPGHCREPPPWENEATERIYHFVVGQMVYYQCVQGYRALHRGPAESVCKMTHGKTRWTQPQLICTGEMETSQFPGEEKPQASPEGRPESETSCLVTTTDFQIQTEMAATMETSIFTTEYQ

## IL-2 (from UniProt P60568)
  pKd: 8.00
